Protein production data for 17 sequences are collected here from a protein production outcome set (Wang et al. 2014).

This data set can be described thus: label from the status in PepcDB records.

As for “MDKIIIQGARENNLKNIFLEIPKNQFVVFTGLSGSGKSTLAFDTLYAEGQRRYLESLSSYARQFLDKVGKPNVDKIEGLTPAIAIDQKTTSKNPRSTVGTITEIYDYLRLLFARVGEQFCPTCLEPISSMSTSDIISQICHLEENSKIIILAPIIKDKKGSFNDKLESLRLKGYVRAFVDGVMVRLDEEIHLHKTKKHTIEAVVDRVVVNNENASRIASAIEKALKESYGELEVEILQDNAPSIRKHYSEHKACFKCKMSFEELEPLSFSFNSPKGACESCLGLGTKFSLDISKILDPNTPLNQGAIKVIFGYNRSYYAQMFEGFCEYNGIDSALCFNELNKEQQDALLYGNGTEISFHFKNSPLKRPWKGIIQIAYDMFKEQKDLSDYMSEKTCSSCEGHRLKASSLSVQVAGLKMADFLTKPIEEVYHFFNDPTHFSYLNEQEKKIAEPILKEILERVFFLYDVGLGYLTLGRDARTISGGESQRIRIASQIGSGLTGVLYVLDEPSIGLHEKDTLKLINTLRNLQKKGNTLIVVEHDKETIKHADFVVDIGPKAGRHGGEVVFSGSVKELLQNNHSTALYLNGTKKIERPKFELPKEKHFLEIKNVNINNIKNLSVQIPLKQLVCITGVSGSGKSSLILQTLLPTAQTLLNHAKKTQSLNGVEIVGLEHLDKVIYLDQAPIGKTPRSNPATYTGVMDEIRILFAEQKEAKILGYSASRFSFNVKGGRCEKCQGDGDIKIEMHFLPDVLVQCDSCKGAKYNPQTLEIKVKGKSIADVLNMSVEEAYEFFAKFPKIAVKLKTLMDVGLGYITLGQNATTLSGGEAQRIKLAKELSKKDTGKTLYILDEPTTGLHFEDVNHLLQVLHSLVALGNSMLVIEHNLDIIKNADYIIDMGPDGGDKGGKVIASGTPLEVAQNCEKTQSYTGKFLALELK”, the protein production result is on record as “failed”.

With “MDKIRTLLLRLPRRQKRVLQVVTDILLVWVALWMAFVVRLGFDDLNNPFIVHFWLFASAPIVAIPLFIRFGMYRAVMRYFGNDALIAIVKAVTLSALTLALVVYVYSNHQTVVPRSIVFNYWWLSMVMIGGLRLAMRQYFLGDWFTTAQHVPFTNRDDGLPKVAIYGAGAAGNQLVAALRLGRLMRPVAFIDDDGSIADRMIAGLQVYKPKHLQQMIDDTGAEEILLAIPSSSRSRRREILGYLEGFPLHVRSVPGFMDLASGRVKVDDIQEVDIADLLGRDAVPAQVDLLAHCIKGQTVLVTGAGGSIGSELCRQILLQGPSTLILLDHSEFNLYSILSELEQRVSRESRLVKLLPILGSVRNYEKLLSVMRTWSVDTVYHAAAYKHVPMVEHNIAEGVLNNVMGTLNTAQAALQCGVANFVLISTDKAVRPTNVMGSTKRLAELTLQALSKELAPVLFDDLSNVSRVNKTRFTMVRFGNVLGSSGSVIPLFHKQIKSGGPLTVTHPKITRYFMTIPEAAQLVIQAGSMGQGGDVFVLDMGEPVRIVELAEKMIHLSGLSVRSEKNPHGDIAIEFTGLRPGEKLYEELLIGDNVAATQHPMIMSANEDHLPWETLKLKLAELLAALELDDYARVRQLLRETVSGYTPDGEIVDWVYQQRRLKP”, the protein production entry is reported as “failed”.

Take “MDKKSKPDWAGESLLSNFVNLLIQTKPIYGVMKQQARQVLIKTAEKNGIPWRKNYEALQVSPAKKLLAAVTNPHVIYPDYYKVPFHAYTEGNLCWDAAFETESATYAMALRVWPQENLTWEAAHARLRGTFHDALETYAPQQVRDILDIGCSVGVSTLALHRYYQRRERYPVRTVGLDLSPYMLAVAKTRDVNSEISEWLHARAENTGLPDKSFDLVTIQFVTHELPGYVSQEIFAEAKRLLRPGGYIALVDNNPRSPVIQNLPPVLFTLMKSTEPWSDDYYTFDIEAALQAVGFAPPITVPSDPRHRTIIARKPD”: the protein production entry was “failed”.

For “MDKKVEKIQEKVRLFYKKHQRNTTIVVVISLSMILILGMAAWYEGKGISYEAKQTALREKQHALQKKRDDILAGKMTEASTQTTINNFSKQEITGENELVTITGTNGQLNINDANIYVSDNAGIVSNQLKQKMFQLNQQLLENANGAQFMLITVPALPSGESVESYSNKIANQLGVGDREKNNGVVFLMAIEDRESRLEVGYGLESILTDSYADDIINNEEVKEAFRDEDYNTGLNKIIDQVSAAINSKTAQVDNELTNIQTELNTNTTKRNVLLMASIAGMLICAVYILQILRTRKLVKKMYQDYLNCLPTKAVLNNSEQTKKVLNKMKKTSFYCLYLNGATLFATKGKIRRATKRGSLLSIYPNAKKQSFGRLLVGDTLYSYDGSVLTYAYLNSQYNPSNHSSSGSGSGGSFGGGSFGGGGASGSWLEHHHHHH”, the protein production entry is “not failed”.

In the case of “MDKLEPLRINMRHGSILAVHFFIPGKPTICHQTARTLIRHIPFQCLLRVTSQNLDVGEFVKIYHEEKAEVKSSSLAKKIPKTSNLLASTSDKLELARAITTFKEEEIRHLAEPDDVDFVLTLDVADVGVSKIVIDVGSLIDLLFLSTLGENGK”, the protein production result is listed as “failed”.

Regarding “MDKNTRVGKRKKRNKAMRIFWSVMAVILVAIGGFALYEYNTVKNAADTAYRSGGLGNAENGSKNSVISNSKPIAILLMGTDTGALGRTYKGRTDSIMVAVLNPKTKKTTLVSFERDQQVNLPDYPENSPSKLNAAYAYGNAKELAKVLKKYYNIPINAYVLINMGGLKTIVNKVVGVDIAPILSFSYEGYTFTKGKTTHMDGAKALAYSRMRYDDPEGDYGRQKRQRQVLSALLNKAESATTLLNSSFISSLSKQVQTDFTFSDMTSMAKRYLAATKDLKTDYTHGTSYMQDGVSYQKVSVSERQRISNLIRKTLGLKTKTVSTDSIDTSTSSSSSSSSTTTDSDTTGGAGNTAGPSDNGAAAGNGADSGTTGGYSAGNDQNNSTGY”, the protein production result is “failed”.

Consider “MDKPALPIYLVVHFSYGDVTFPLQGRSYWTVGRSQDNDLVIRDNCISRNHAILQATEEDTFLLIDLGSRNGTFVNGRRVSVPIAIQDQDKITFGKTEAQFYSDQNGTPSGLLRNPAEWDTQTNVLHERRLITVLVADMRNFTGMAQQVEEELLSMLIGNWFRQAGHILREAGSWVDKYIGDAVMAIWFHGYNEATPAEIIQILHAVNRLQAMTAKLNQKYELPFPLRIGTGINTGYAMVGNTGSGDHPDYTAIGDTVNAAFRLESATKQAHFDLAMSEKTFSYLQDLPQWSATVQQHTIELKGYTNPITIYGLPFATLGTLLDHTSLEDTTPASEGP”, for which the protein production result is listed as “failed”.

Take “MDKRIATIILSIVNIIGIFEFPLYESFIGFFFISSALSILYESQLSLIVPTVLFASLVLLHIITIQLQKLIILSILMLISIIGKNNKWIYSILITLAPGLIINNLYLLLIVLALLIPLLIKLGGEPRAIIISGILYLIYSGIIFPNNEALANQISQISYFYLMFGIIGIIVEDKRITRITLRKILPYLSFIPASFASIMLGYPSDSSFIYWSASSFYFSHLYLPWIYEIGYNSNQHLIASWFLAYLLTLIIKNPLITAEVFLGIFTFLSGLISYYVFKRLNLKYPLLFSLLYQINIFNPIISHSISVFSYAFLPLVLFFAYNKNKVLYSILTLTAASSIPIFISTLVIPLVYRRYYFLLYALGVNAFWLIPFLIFGYDKFTFNVSNIEILISIILVSISVLLYQLRFKNIEILYMIFISFVLLILGINTGPLILLATILTLGSLRDISILYLTLLSGLIILSATSFSYGVISGYANTTFYTYNLPNLPKPGEYGFGITTLVNDLNLTASGMPTESISYNVRYFIYNSRVIENPLYFGFPIPAIPNYTPQLTFSYIYSNSSVKVIYSPFNKPLGLMVYSNVTPSKISIVFPTRIENISGIKGLVKNYTIQIITNTSLTIIGGKVTVDNKSIFSSYYKPKIVTSIMIGEITEVIDSNYSIYLPIHESLTINGKVVNHPIILPPGKYTIVISDEKIEYVSYASIFLTIVSLVLLIRRGMKV”: the protein production result is on record as “failed”.

In the case of “MDKRIVGTNAGKVWCALKEIGEISIPELARRLNLSVESTALAAGWLARENKICIQRKNGLIALSDESAFPFSFG”, the protein production entry is listed as “failed”.

For “MDKRLIVMHNLSRHYGKQYWWQQNSLEDWLMMILIQRTSSKNVAQAVHNLQPYMQVDRLMALSQSELETLVRPAGFYRQKAQRIHDLLTWFVAQGGSFEKIAEKPAAELRETLLALNGIGNETADVMLMYTFGKKTFVADTYAMRLFNRLGFGPYTNYAKMQADFAPALDQITLDEAREWHALIDEHGKTQVRHAYDDRFLLQPDLTEAAWPPEAVQVEPPHDDPGSGKWRHAADPSAMTHK”, the protein production entry is listed as “failed”.

Consider “MDKSIIQLVDELPSDNITVKVLNALDYVAPGQWQNLVGFDNTIRAVTGETDARVIQKIRDRATSLYNDPQQGYQSAVKLYQTIDKADTAMATAALANKVGEKIGFLSFLSNITPKADVTQSIDLVSKIAIEIIVFCKLNGIPQPNPQEFANSLANNYQDASLIRMVALVCLDGILPLGPDFLSKIQGIISGAESNSITQNPVFLAVNSSLPGSNPTDKLGFINQGFNAVQGWMNNLVTKTGITPQSISSHLGNFIQIADDNLDFVAAFLDQTTNYFEHTGIQSVARRLILKAHTLVKEEIKQETTQPIQDSSSAVKSDTSQYAVSKKIEVWDEEEEDWYQATIEKVQDDQFFINYIGYGSSHNEWVGKDDIRATDYASSDANGYAVGKKVKCWSDEEETWYTATIEKIQGNQYFIHYTGYDSSYDEWVNSDDIS”, for which the protein production entry is “failed”.

In the case of “MDKVFAPWRIEWVEREKTNPDVDCVFCAFQAQDDDRANNLVARSDHAFVLLNNYPYNPGHVMVIPHTHTGEYGDLDDKTLLDHGRLKQRTFDALETALSPDAFNAGLNLGGSAAGGSIDDHLHTHVVPRWNGDTNFMPVISDTKVIVEAVEETYDRLYAAFASQDGTTAPEDGAVRIE”, the protein production result is “failed”.

On to “MDLALAQVDSTVSGLYDALDLIGVLLNGIIGGTIARQRGYDIIGFLFLALFSALGGGMIRDMLIQQGTVAAIDNQIYLALAFSGALIAMAVNFKGRVWELFKVHGDAIVLGVWAVTGSVKAMNAGVAPLPSIFMGVLTAVGGGMVRDVATGQTPTIFGGGTLYAVPATLSATSMVIFHSFDQVILGMIISPFLGIALAVTAYWCGWVIPVNTDFAPVNLTVSQLRAMLSKAERKDKDQK”, for which the protein production result is on record as “failed”.

For “MDLDPTLLTWAFVVGGALLMLIEAVVPGGIAFFLGIGGVVVGGLRALGLLVDPLSSVVTWVFLSTGLTIALRPLMLRFVQGDVSLAMTDEDAEAMGETVTVVEAVGPESPGRIRFRGATWDARTLEGRLPDGAEAQLLYRDNLTWVVEPADHADLDAELSAAIGSDVSEGDANRSPSTDDTTSDDSGLGYDPSARSSS”, the protein production result is reported as “failed”.

Regarding “MDLENNNNTPLTGKQAEKCAKKRKCVITLDEKQVESKRLKKEESNVEATSRPPAQSPKKRLHLNGKPMQNKDLNFKYGNYKHYYGKRILNKDFHDIRLDVLGTQPDLFRNKQLLDIGCNSGHLSIQIARKFEVKSLVGLDIDRGLINDAQKTVSHLKRHATPGQGIPHIQFVHGNYVLEDDVLLEIERPQFDVILCLSVTKWIHLNFCDSGLKQAFRRMYLQLRPGGKLILEPQSFDGYKRRKKLSEQIRDNYNAIKFRPDHFTEYLLSPEVGFAEMKLMGIPEHCKVGFKRPIQIFTKS”, the protein production entry is “failed”.

Consider “MDLFVMVVGASGIGDGGEQKYNYKLRAWTNEDDPRQTKIVTTNADPEFREVLHLPQNMASSFLNLELFSVNSADTDAFFIGRANTALPMKTNANVYRKIKLQNLDTSGNIVTVGYLEVYLGLETG”, for which the protein production entry is given as “failed”.

With “MDLKILSLATDKTTDKLQEFLQTLKDDDLASLLQNQAVKGRAVGTLLRAVLKGSPCSEEDGALRRYKIYSCCIQLVESGDLQQDVASEIIGLLMLEVHHFPGPLLVDLASDFVGAVREDRLVNGKSLELLPIILTALATKKEVLACGKGDLNGEEYKRQLIDTLCSVRWPQRYMIQLTSVFKDVCLTPEEMNLVVAKVLTMFSKLNLQEIPPLVYQLLVLSSKGSRRSVLDGIIAFFRELDKQHREEQSSDELSELITAPADELYHVEGTVILHIVFAIKLDCELGRELLKHLKVALRCF”, the protein production entry was “failed”.
